Experimental data published in US9212231B2, “TRAIL R2-specific multimeric scaffolds” (MEDIMMUNE, LLC, dated 2015).

Columns and labels:
[1] = biological target: Murine CD40L on the Th2 cell line D10.G4.1 (murine) (UniProt P27548)
[2] = biological target: TRAIL R2-Fc fusion protein (human) (UniProt O14763); experiment: competition ELISA: inhibition of binding of 0.75 nM biotinylated TRAIL R2-Fc to plate-coated A9(1C12)
[3] = biological target: TRAIL R2-Fc fusion protein (human) (UniProt O14763); experiment: competition ELISA on plate-coated A9(1C12)
[4] = biological target: TRAIL R2 expressed on the cell surface (human, UniProt O14763); experiment: cell-based or functional assay

TRAIL R2-Fc fusion protein (human), sequence (O14763 56-182 limits assumed): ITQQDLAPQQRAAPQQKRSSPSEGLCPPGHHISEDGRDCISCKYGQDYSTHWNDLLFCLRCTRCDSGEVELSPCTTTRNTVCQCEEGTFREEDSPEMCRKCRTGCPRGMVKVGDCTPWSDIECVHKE

MR1 antibody
IC50, inhibition of Murine CD40L-induced CD86 expression on CD19 gated B cells [1]: 100000 nM

B1: A2(1E11) (designed binder)
chain: SGGGGSAIEVKDVTDTTALITWAKPWVDPPPLWGCELAYGIKDVPGDRTTIDLQQKHTAYSIGNLKPDTEYEVSLICFDPYGAKSNPAKETFTTGGGGSGGGGSGGGGSAIEVKDVTDTTALITWAKPWVDPPPLWGCELAYGIKDVPGDRTTIDLQQKHTAYSIGNLKPDTEYEVSLICFDPYGAKSNPAKETFTTGGGGSGGGGSGTLGHHHHHHHH
IC50 [2]: 0.5 nM | fold higher affinity relative to the monomeric A1 protein [3]: 30 to 40 fold | fold lower IC50 than the monomer A1 [3]: > 30 fold

B2: A3(1E11) (designed binder)
chain: SGGGGSAIEVKDVTDTTALITWAKPWVDPPPLWGCELAYGIKDVPGDRTTIDLQQKHTAYSIGNLKPDTEYEVSLICFDPYGAKSNPAKETFTTGGGGSGGGGSGGGGSAIEVKDVTDTTALITWAKPWVDPPPLWGCELAYGIKDVPGDRTTIDLQQKHTAYSIGNLKPDTEYEVSLICFDPYGAKSNPAKETFTTGGGGSGGGGSGGGGSAIEVKDVTDTTALITWAKPWVDPPPLWGCELAYGIKDVPGDRTTIDLQQKHTAYSIGNLKPDTEYEVSLICFDPYGAKSNPAKETFTTGGGGSGGGGSGGGGSAIEVKDVTDTTALITWAKPWVDPPPLWGCELAYGIKDVPGDRTTIDLQQKHTAYSIGNLKPDTEYEVSLICFDPYGAKSNPAKETFTTGGGGSGGGGSGTLGHHHHHHHH
IC50 [2]: 0.4 nM | EC50, killing of H2122 cells [4]: 0.013 nM | Maximum Inhibition %, H2122 cells [4]: 91% | fold higher affinity relative to the monomeric A1 protein [3]: 30 to 40 fold | fold lower IC50 than the monomer A1 [3]: > 30 fold
